In patent US20260049134A1 (UNIVERSITY OF FLORIDA RESEARCH FOUNDATION, published 2026):

T1: ANXA1
T1 construct: coated protein in the ELISA; also called ANXA1-His (R&D Systems)
T1 chain: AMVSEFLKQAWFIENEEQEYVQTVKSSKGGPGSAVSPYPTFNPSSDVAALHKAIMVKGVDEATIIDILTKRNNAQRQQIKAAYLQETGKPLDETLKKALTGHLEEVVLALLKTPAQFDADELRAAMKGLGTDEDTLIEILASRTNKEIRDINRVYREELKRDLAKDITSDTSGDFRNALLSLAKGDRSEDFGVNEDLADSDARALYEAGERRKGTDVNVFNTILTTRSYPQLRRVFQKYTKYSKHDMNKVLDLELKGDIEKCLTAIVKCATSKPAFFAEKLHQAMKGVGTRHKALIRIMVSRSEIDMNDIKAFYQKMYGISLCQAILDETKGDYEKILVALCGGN

T2: PTPRG-Fc (ECD of human PTPRG, aa 20-736, fused to human Fc gamma 1) (human, UniProt P23470 20-736)
T2 construct: Made in-house in Expi293 cells; Used in ELISA and SPR; also called recombinant PTPRG-Fc; PTRPG; not shown: human IgG1 Fc (Fc gamma 1) after the hinge
T2 sequence: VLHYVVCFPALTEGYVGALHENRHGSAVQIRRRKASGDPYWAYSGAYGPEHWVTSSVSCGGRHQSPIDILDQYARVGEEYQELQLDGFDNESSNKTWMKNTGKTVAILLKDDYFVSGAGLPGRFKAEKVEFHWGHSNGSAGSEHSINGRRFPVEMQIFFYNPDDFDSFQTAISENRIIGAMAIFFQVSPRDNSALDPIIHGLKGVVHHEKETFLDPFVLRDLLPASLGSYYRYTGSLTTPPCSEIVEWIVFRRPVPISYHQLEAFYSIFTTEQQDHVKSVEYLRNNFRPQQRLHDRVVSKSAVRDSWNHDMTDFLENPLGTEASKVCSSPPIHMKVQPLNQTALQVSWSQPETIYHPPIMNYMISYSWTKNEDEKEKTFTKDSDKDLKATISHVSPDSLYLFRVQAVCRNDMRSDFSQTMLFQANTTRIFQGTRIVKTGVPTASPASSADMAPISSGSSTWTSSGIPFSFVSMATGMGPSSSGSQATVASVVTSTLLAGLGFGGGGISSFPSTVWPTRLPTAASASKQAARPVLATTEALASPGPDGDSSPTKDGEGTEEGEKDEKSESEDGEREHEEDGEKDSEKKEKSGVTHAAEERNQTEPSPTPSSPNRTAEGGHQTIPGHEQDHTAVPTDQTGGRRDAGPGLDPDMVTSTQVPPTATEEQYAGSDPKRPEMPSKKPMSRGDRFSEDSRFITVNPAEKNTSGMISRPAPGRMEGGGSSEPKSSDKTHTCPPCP

T3: SLAMF7
T3 construct: coated protein in the ELISA; also called SLAMF7-StrepTag
T3 chain: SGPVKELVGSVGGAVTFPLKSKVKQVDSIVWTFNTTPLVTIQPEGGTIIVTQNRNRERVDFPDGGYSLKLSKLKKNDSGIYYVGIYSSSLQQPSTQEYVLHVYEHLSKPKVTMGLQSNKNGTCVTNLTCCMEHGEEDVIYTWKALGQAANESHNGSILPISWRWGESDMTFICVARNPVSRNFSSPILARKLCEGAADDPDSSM


Assays:
APP = biological target: T4, APP; test: ELISA on coated APP-His, 150 ng IgG1; None 0.092
T4 construct: His-tagged; coated protein in the ELISA; also called APP-His (Acro Biosystems)
Protocol: (§1) Recombinant purified ECDs (50-150 ng) of each putative target protein were coated, incubated with 150 ng of the indicated primary antibody, and binding was detected using a peroxidase-conjugated anti-human Fab secondary antibody. Heatmap represents averages of technical triplicates. (8B) Target validation via siRNA knockdown. H929 cells were transfected with siRNA pools targeting the putative antibody targets ICAM1, CADM1, and PTPRG. Cells were then subjected to cognate IgG binding analysis via flow cytometry. (NT, non-targeting siRNA).
(§2) ELISA ELISA was conducted as described previously. Briefly, 50-150 ng of antigen was coated overnight in half-area 96-well plates at 4° C., blocked with 3% BSA at 37° C. for 1 h, and 150 ng of chimeric rabbit/human IgG1 was added, incubating for 2 h at 37° C. […] After incubating at 37° C. for 15 min-1 h (depending on intensity of controls), data were acquired using a SpectraMax M5 plate reader (Molecular Devices).

ANXA1 [1] = biological target: T1, ANXA1; test: ELISA on coated ANXA1-His
Protocol: as §1, §2

ANXA1 [2] = biological target: T1, ANXA1; test: ELISA on coated ANXA1-His, 150 ng IgG1; None 0.098
Protocol: as §1, §2

[3] = biological target: T2, PTPRG-Fc (ECD of human PTPRG, aa …); test: ELISA on coated PTPRG-Fc, 150 ng IgG1; None 0.117
Protocol: as §1, §2

SLAMF7 = biological target: T3, SLAMF7; test: ELISA on coated SLAMF7-StrepTag, 150 ng IgG1; None 0.047
Protocol: as §1, §2

ICAM1-Fc (R&D Systems) = biological target: T5, ICAM1-Fc (R&D Systems) (human, UniProt P05362 28-480); test: ELISA on coated ICAM1-Fc, 150 ng IgG1; None 0.060
T5 construct: Bought; also called ICAM-1/CD54; not shown: Fc of the bought fusion protein
Protocol: as §1, §2

T5 sequence (P05362 28-480): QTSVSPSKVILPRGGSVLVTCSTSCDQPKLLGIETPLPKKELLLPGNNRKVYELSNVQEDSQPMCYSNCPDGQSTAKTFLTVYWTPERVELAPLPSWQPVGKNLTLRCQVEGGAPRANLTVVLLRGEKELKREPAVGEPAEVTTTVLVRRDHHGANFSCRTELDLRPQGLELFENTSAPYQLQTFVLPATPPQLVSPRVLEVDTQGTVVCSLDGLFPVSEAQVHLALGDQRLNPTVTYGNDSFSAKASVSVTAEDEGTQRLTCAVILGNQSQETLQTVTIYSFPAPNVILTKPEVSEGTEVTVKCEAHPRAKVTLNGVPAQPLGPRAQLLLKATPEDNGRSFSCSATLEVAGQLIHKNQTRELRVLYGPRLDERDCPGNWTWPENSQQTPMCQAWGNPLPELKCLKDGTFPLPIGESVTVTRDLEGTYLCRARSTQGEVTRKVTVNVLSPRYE

| ELISA Absorbance (405 nm-570 nm) (APP) | ELISA Absorbance (405 nm-570 nm) (ANXA1 [2]) | ELISA Absorbance (405 nm-570 nm) [3] | ELISA Absorbance (405 nm-570 nm) (SLAMF7) | ELISA Absorbance (405 nm-570 nm) (ICAM1-Fc (R&D Systems)) | Binder | binding result (ANXA1 [1]) |
| --- | --- | --- | --- | --- | --- | --- |
| 0.112 | 0.082 | 0.102 | 0.074 | 0.074 | HW-56 chimeric rabbit-human IgG1 LA/LA/PG (antibody, V domains shown, Fc-silenced (L234A/L235A/P329G) IgG1, kappa; Alexa Fluor 647-labeled in single-step flow cytometry; Cluster C-45) VH: QSVKESEGGLFKPTDTLTLTCTASGFTVSTNAVTWVRQAPGNGLEYIGTIGRSGSAYFASWAKRRSTLTRDINLNTVTLKMTSLTAADTATYFCVRGSPGYRTAISIWGPGTLVTISS VL: AVMTQTPSSTSAAVEGTVTINCQASQSISNRLSWFQQKPGQPPKLLIYQASTLASGVPSRFKGSGSGTEFTLTISGVQREDAATYYCLGSYSSSDASFGGGTKLEIKR | no binding (tested: 150 ng IgG1 per well) |
| 0.061 | 0.066 | 0.097 | 0.046 | 0.055 | HW-101 chimeric rabbit-human IgG1 LA/LA/PG (antibody, V domains shown, Fc-silenced (L234A/L235A/P329G) IgG1, lambda; Alexa Fluor 647-labeled in single-step flow cytometry; Cluster C-97) VH: QEQLVESGGRLVTPGTPLTLTCKASGFSLGKYDMSWVRQAPGKGLEWIGTIYAGSGSTWYASWAKGRFTISKTSTTVDLKMTSLTTEDTATYFCARDFLGVNSIWGPGTLVTISS VL: SFVLTQPASVQVNLGQTVSLTCTADTLSRSYASWYQQKPDQAPVLLIHRDTSRPSGVPDRFSGSNSGNTATLTISGAQAGDEADYYCATSDGSGSNFHFVFGGGTQLTVTG | no binding (tested: 150 ng IgG1 per well) |
| 0.067 | 0.075 | 0.096 | 0.051 | 0.081 | HW-97 chimeric rabbit-human IgG1 LA/LA/PG (antibody, V domains shown, Fc-silenced (L234A/L235A/P329G) IgG1, lambda; Alexa Fluor 647-labeled in single-step flow cytometry; Prototype of cluster C-97) VH: QKQLVESGGRLVTPGTPLTLTCTVTGIDLSSHGMSWVRQAPGKGLEWIGVIYPSGSTWYASWARGRFTISKTSTTVDLKMTSLTTEDTATHFCARGDVGGADNNIWGPGTLVTVSS VL: SFVLTQPASVQVDLGQTVSLTCTAETLSRSYASWYQQKPGQAPVLLIYRDTSRPSGVPDRFSGSSSGNTATLTISGAQAGDEADYYCATSDGSGSSYQYVFGGGTQLTVTG | no binding (tested: 150 ng IgG1 per well) |

Continued, binder first:

| Binder | ELISA Absorbance (405 nm-570 nm) (APP) | ELISA Absorbance (405 nm-570 nm) (ANXA1 [2]) | ELISA Absorbance (405 nm-570 nm) [3] | ELISA Absorbance (405 nm-570 nm) (SLAMF7) | ELISA Absorbance (405 nm-570 nm) (ICAM1-Fc (R&D Systems)) | binding result (ANXA1 [1]) |
| --- | --- | --- | --- | --- | --- | --- |
| HW-1 chimeric rabbit-human IgG1 LA/LA/PG (antibody, V domains shown, Fc-silenced (L234A/L235A/P329G) IgG1, lambda; Alexa Fluor 647-labeled in single-step flow cytometry; Prototype of cluster C-1) VH: QSLEESGGGLFKPTDTLTLTCTASGFSLGSSYAISWVRQAPGKELEWIGTIDSGRAYYARWAKSRSTITRNTNENTVTLKMTSLTAADTATYFCARDLIPTYSQDIWGPGTLVTISS VL: SFVLTQPASVQVNLGQTVSLTCTADTLSRRYASWYQQKPGQAPVLLIYRDTSRPSGVPDRFSGSSSGNTATLTISGAQAGDEADYYCATSDGSGNSYQYVFGGGTQLTVTS | 0.071 | 0.085 | 0.756 | 0.053 | 0.065 | no binding (tested: 150 ng IgG1 per well) |
| HW-17 chimeric rabbit-human IgG1 LA/LA/PG (antibody, V domains shown, Fc-silenced (L234A/L235A/P329G) IgG1, lambda; Alexa Fluor 647-labeled in single-step flow cytometry; Cluster C-1) VH: QSLGESRGRLVTPDETLTLTCTVSGIDLSSNAMSWVRQAPGEGLEWIGTINTGGRAYYASWAKGRFTISRTSTTVDLKMTSLTTEDTATYFCARERYSDGRAYDIWGPGTLVTISS VL: SFVLTQPASVQVNLGQTVSLTCTADTLSRRYASWYQQKPGQAPVLLIYTDSNRPSGIPDRFSGSSSGNTATLTISGAQAGDEADYYCATDDGSGSIYQYVFGGGTQLTVTG | 0.062 | 0.073 | 0.756 | 0.053 | 0.071 | no binding (tested: 150 ng IgG1 per well) |
| HW-113 chimeric rabbit-human IgG1 LA/LA/PG (antibody, V domains shown, Fc-silenced (L234A/L235A/P329G) IgG1, lambda; Alexa Fluor 647-labeled in single-step flow cytometry) VH: QKQLVESGGGLVQPGGSLTLTCTVSGFSLNKYYMGWFRQAPGKGLEWIGVISRSGDTYYSSWAKGRFTISKASTTVDLRITSPTTEDTATYFCARDASSPGFHGDRLDLWGQGTLVTVSS VL: SFVLTQPASVQVNLGQTVSLTCTADTLSRSYASWYQQKPGQAPVLLIYRDTSRPSGVPDRFSGSSSGNTATLTISGAQAGDEADYYCATSDGIGSNYLWVFGGGTQLTVTG | 0.074 | 0.073 | 0.071 | 0.048 | 0.498 | no binding (tested: 150 ng IgG1 per well) |
| HW-81 chimeric rabbit-human IgG1 LA/LA/PG (antibody, V domains shown, Fc-silenced (L234A/L235A/P329G) IgG1, lambda; Alexa Fluor 647-labeled in single-step flow cytometry; Cluster C-45) VH: QKQLVESGGGLVTPGGTLTLTCTVSGFSLSSNGVSWVRQAPGKGLEYIGLIRSIGSTYYATWAKGRFTISKTSTTVDLKITSPTTEDTATYFCARGGYRNGFKLWGPGTLVTVSS VL: QPVLTQSPSVSAALGASAKLTCTLSSAHKTYYIEWYQQQHPGKAPRYLMQLQSDGSYTKGTGVPDRFSGSSSGADRYLIISSVQAEDEADYICGVIDSAVYVFGGGTQLTVTG | 0.081 | 0.065 | 0.122 | 0.054 | 0.051 | no binding (tested: 150 ng IgG1 per well) |
| HW-8 chimeric rabbit-human IgG1 LA/LA/PG (antibody, V domains shown, Fc-silenced (L234A/L235A/P329G) IgG1, kappa; Alexa Fluor 647-labeled in single-step flow cytometry; Cluster C-45) VH: QSLEESGGRLVTPGTPLTLTCTVSGFSLSSYAMSWVRQAPGKGLEWIGAISTGGSTTYASWAKGRFTISKTSSTTVDLKMTSLTTEDTATYFCVRHFRLWGPGTLVTISS VL: QVLTQTPSSVSAAVGGTVTIKCQASQSIGSALAWFQQKPGQRPKLLIYRASNLASGVPSRFKGSGSGTEFALTISGVQREDAATYYCLGGAAAVWAFGAGTNVEIKR | 0.071 | 0.077 | 0.069 | 0.049 | 0.067 | no binding (tested: 150 ng IgG1 per well) |
